Experimental data as given in US20150361176A1 (GlaxoSmithKline, published 2015).
Residue numbers refer to the chain shown, from its start.

T1: mouse TGF-βRII on MC3T3-E1 cells (mouse osteoblasts) (mouse, UniProt Q62312 24-567)
T1 sequence (looked up): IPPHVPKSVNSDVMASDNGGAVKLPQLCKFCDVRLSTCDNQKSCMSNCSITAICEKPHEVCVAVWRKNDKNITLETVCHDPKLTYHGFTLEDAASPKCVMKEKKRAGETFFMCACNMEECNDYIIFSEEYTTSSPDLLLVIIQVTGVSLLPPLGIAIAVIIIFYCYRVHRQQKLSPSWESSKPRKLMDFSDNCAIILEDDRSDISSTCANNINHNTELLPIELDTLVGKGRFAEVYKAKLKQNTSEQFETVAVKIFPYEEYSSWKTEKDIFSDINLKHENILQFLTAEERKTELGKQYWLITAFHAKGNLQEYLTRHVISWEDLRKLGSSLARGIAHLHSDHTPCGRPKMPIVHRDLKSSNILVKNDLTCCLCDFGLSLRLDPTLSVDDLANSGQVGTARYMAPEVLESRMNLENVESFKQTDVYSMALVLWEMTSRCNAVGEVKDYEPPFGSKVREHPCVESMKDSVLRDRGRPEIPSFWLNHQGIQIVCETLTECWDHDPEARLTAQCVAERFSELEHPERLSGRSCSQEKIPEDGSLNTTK

B1: DOM23m-99 (VHH, not shown: small tags and cut ends)
VHH: EVQLLESGGGLVQPGGSLRLSCAASGFTFDRYRMMWVRQAPGKGLEWVSTIDPAGMLTYYADSVKGRFTISRDNSKNTLYLQMNSLRAEDTAVYYCAKRLASRSHFDYWGQGTLVTVSS
B2: DOM23h-271-130 (DOM23h-271-123 + C-terminal Alanine) (VHH)
VHH: EVQLLESGGGLVQPGGSLRLSCAASGSTFTEYRMWWVRQAPGKGLEWVSAIEPIGHRTYYADSVKGRFTISRDNSKNTLYLQMNSLRAEDTAVYYCAKQAPGEKWARRWDLDYWGQGTLVTVSS
notes: human VH dAb
B3: DOM23h-271-132 (DOM23h-271-123 + C-terminal Alanine + 64R) (VHH)
VHH: B2 VHH with K65R
notes: human VH dAb
B4: DOM23h-271-131 (DOM23h-271-123 + C-terminal Alanine + 61N) (VHH)
VHH: B2 VHH with D62N
notes: human VH dAb
B5: DOM23h-271-133 (DOM23h-271-123 + C-terminal Alanine + 61N64R) (VHH)
VHH: B2 VHH with D62N, K65R
notes: human VH dAb
B6: DOM23h-271 mutant 1A2 (R at 61, A at 64) (VHH, name in Kabat numbering)
VHH: EVQLLESGGGLVQPGGSLRLSCAASGFTFTEYRMWWVRQAPGKGLEWVSAIEPIGNRTYYARSVAGRFTISRDNSKNTLYLQMNSLRAEDTAVYYCAKQIPGRKWTANSRFDYWGQGTLVTVSS
notes: human VH dAb; expressed from pDOM13
B7: DOM23h-271 mutant 1B2 (V at 61, W at 64) (VHH, name in Kabat numbering)
VHH: B6 VHH with R62V, A65W
notes: human VH dAb; expressed from pDOM13; also called VW
B8: DOM23h-271 mutant 1G11 (R at 61, M at 64) (VHH, name in Kabat numbering)
VHH: B6 VHH with A65M
notes: human VH dAb; expressed from pDOM13; also called RM
B9: DOM23h-271 mutant 3F11 (R at 61, E at 64) (VHH, name in Kabat numbering)
VHH: B6 VHH with A65E
notes: human VH dAb; expressed from pDOM13; also called RE
B10: DOM23h-271-123 (VHH)
VHH: B2 VHH
notes: expressed from pC10
B11: DOM23h-271 mutant 1D5 (K at 61, F at 64) (VHH, name in Kabat numbering)
VHH: B6 VHH with R62K, A65F
notes: human VH dAb; expressed from pDOM13; also called KF
B12: DOM23h-271 mutant 3D4 (K at 61, T at 64) (VHH, name in Kabat numbering)
VHH: B6 VHH with R62K, A65T
notes: human VH dAb; expressed from pDOM13; also called KT
B13: DOM23h-271 mutant 1E6 (R at 61, Y at 64) (VHH, name in Kabat numbering)
VHH: B6 VHH with A65Y
notes: human VH dAb; expressed from pDOM13; also called RY

Assays:
[1] = molecular target: T1, mouse TGF-βRII on MC3T3-E1 cells (mouse …); test: cell-based or functional assay
[2] = molecular target: human TGF-βRII on cells (SBE-bla HEK 293T cells; A549 cells) (human, UniProt P37173 23-567); test: cell-based or functional assay
[3] = molecular target: T2, recombinant human TGF-β RII/Fc chimera protein (human, UniProt P37173 24-159); test: SPR Biacore T200, receptor-Fc captured by anti-human IgG, dAb as analyte, 1:1 model
T2 construct: range 24-159; Made in HEK-F cells; Biotinylated where it was put on SA chips, otherwise captured by anti-human IgG; also called human TGFbRII/Fc; hRII-Fc; not shown: Fc region of human IgG1
Procedure: (§1) Anti-human IgG was immobilised on a Biacore CM4 chip by primary amine coupling according to the manufacturer's instructions. Human TGF-β RII/Fc, cynomolgus TGF-β RII/Fc or human Fc fragment were captured on this surface. Domain antibodies were passed over the two captured receptors at 3 concentrations of 100, 10 and 1 nM (DOM23h-439 dAbs) or 100, 25 and 6.25 nM (DOM23h-271 dAbs). Only the 100 nM concentration of each dab was passed over human Fc fragment to confirm specificity of binding to the extracellular TGF-β RII domain. An injection of buffer over the captured antigen surface was used for double referencing. […] All runs were carried out at 25° C. using HBS-EP buffer as running buffer. Data were generated using the BIACORE™ T200 and fitted to the 1:1 binding model inherent to the software. […] The DOM23h-271 dAbs and the DOM23h-439 lineages were run in separate experiments.

cynomolgus TGF-β RII/Fc = molecular target: T3, cynomolgus TGF-β RII/Fc (cynomolgus); test: as above
T3 construct: extracellular domain; also called Cyno TGFBRII; Cyno TGFbRII
Procedure: as §1

[4] = molecular target: T2, recombinant human TGF-β RII/Fc chimera …; test: SPR Biacore A100, antigen-Fc captured by anti-human IgG, purified dAb, 1:1 model
Procedure: BIACORE™ A100 analysis was carried out using a capture surface on a CM5 chip. Anti-human IgG was used as the capturing agent and coupled to a CM5 biosensor chip by primary amine coupling. The Antigen molecule fused to the human Fc was captured on this immobilised surface to a level from 200 to 300 resonance units and supernatants or purified domain antibodies were passed over this captured surface. An injection of media or buffer over the captured antigen surface was used for double referencing. On each flow cell, a protein A spot allowed to confirm the presence of domain antibody on each sample injected. […] All runs were carried out at 25° C. using HBS-EP buffer as running buffer. Data were generated using the BIACORE™ A100 and analyzed using its inherent software. Kinetics from purified samples were fitted to the 1:1 binding model while supernatant off-rates were analyzed using the 1:1 dissociation model and/or using the binding level and the stability level of each sample in comparison to the parent molecule.
A selection of mutants with improved off-rate were purified and subjected to full BIACORE™ A100 kinetic analysis to determine their affinity (Table 10). The thermal stability of the mutants was also determined by generation of melting profiles in the presence of SYPRO™ Orange (Invitrogen). Briefly, the purified dAbs were diluted to 50 and 100 ug/ml in a 1:500 dilution of SYPRO™ Orange in PBS, and subjected to a 30-90° C. melt curve in a Mini OPTICON™ PCR machine (BioRad). The Tm of the major positive transition was determined at each concentration and used to calculate an estimated Tm value at 1 mg/ml as an indication of the melting temperature for comparison (Table 10).

T2 sequence (P37173 24-159 limits assumed, stated change not applied): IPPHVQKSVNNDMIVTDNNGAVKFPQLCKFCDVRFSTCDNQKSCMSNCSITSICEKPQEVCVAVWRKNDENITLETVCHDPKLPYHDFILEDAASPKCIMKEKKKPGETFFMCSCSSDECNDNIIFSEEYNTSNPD
human TGF-βRII on cells (SBE-bla HEK 293T cells; A549 cells), sequence (P37173 23-567): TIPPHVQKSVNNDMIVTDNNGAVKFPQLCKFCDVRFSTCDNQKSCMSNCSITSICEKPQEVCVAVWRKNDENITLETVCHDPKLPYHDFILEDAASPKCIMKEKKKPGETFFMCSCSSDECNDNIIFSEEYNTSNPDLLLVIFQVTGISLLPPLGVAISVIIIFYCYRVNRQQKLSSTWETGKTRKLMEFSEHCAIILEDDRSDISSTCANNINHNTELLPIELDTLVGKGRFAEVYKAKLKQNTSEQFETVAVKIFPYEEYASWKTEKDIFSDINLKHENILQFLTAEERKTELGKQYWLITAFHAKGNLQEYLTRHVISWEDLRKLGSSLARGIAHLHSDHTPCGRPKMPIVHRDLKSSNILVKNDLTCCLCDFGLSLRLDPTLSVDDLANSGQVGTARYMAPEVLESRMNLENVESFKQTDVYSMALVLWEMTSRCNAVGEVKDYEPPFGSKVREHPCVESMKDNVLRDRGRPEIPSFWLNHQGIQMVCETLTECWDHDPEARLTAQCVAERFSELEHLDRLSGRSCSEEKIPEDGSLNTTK

Binder	max % inhibition, Average (Mouse 3T3 cell assay, method m2) [1] [%]	IC50 nM, Mean (SBE-bla HEK 293T cell sensor assay) [2] [nM]	Kd [3] [nM]	koff [3] [s⁻¹]	kon [3] [M⁻¹ s⁻¹]	Kd (cynomolgus TGF-β RII/Fc) [nM]	koff (cynomolgus TGF-β RII/Fc) [s⁻¹]	kon (cynomolgus TGF-β RII/Fc) [M⁻¹ s⁻¹]	Kd [4] [nM]
B1	46.5	–	–	–	–	–	–	–	–
B2	–	37	0.123	0.000309	2.51e+06	0.124	0.000324	2.61e+06	–
B3	–	21	0.0182	0.000222	1.22e+07	0.0185	0.000238	1.29e+07	–
B4	–	6.3	0.0217	0.000136	6.26e+06	0.0212	0.000144	6.81e+06	–
B5	–	2.4	0.00909	7.7e-05	8.47e+06	0.00985	8.71e-05	8.84e+06	–
B6	–	–	–	–	–	–	–	–	2.24
B7	–	–	–	–	–	–	–	–	1.79
B8	–	–	–	–	–	–	–	–	0.97
B9	–	–	–	–	–	–	–	–	3.27
B10	–	18.3	0.102	0.000293	2.89e+06	0.104	0.00032	3.08e+06	–
B11	–	–	–	–	–	–	–	–	3.69
B12	–	–	–	–	–	–	–	–	4.26
B13	–	–	–	–	–	–	–	–	1.17
